# Measured values: patent publication US12559749B2, “Methods of rescuing stop codons via genetic reassignment with ACE-tRNA” (UNIVERSITY OF IOWA RESEARCH FOUNDATION, priority 2017, dated 2026)
# Tested on: native stop codons (TAA, TAG, TGA), 3′UTR ribosome density
# Assay: Ribosome footprint profiling of transcriptome-wide 3′UTRs, HEK293 cells
# Format: cell-based, human
# Source text: The question was raised whether ACE-tRNAs that show efficacious suppression of premature stop codons may also induce global readthrough of native stop codons. To address this potential “off target” suppression, a transcriptome-wide quantitative profile of actively engaged ribosomes on all cellular transcripts was obtained by generating libraries of ribosome footprints from HEK293 cells expressing exogenous ACE-tRNAs or a control mock plasmid (puc57GG). Streptomycin was removed from the growth media to prevent readthrough artifacts. For comparison, the ribosome footprint library was also generated from cells in the presence or absence of G418 (150 μM, 48 h). […] Only transcripts with a minimum threshold of 5 RPKM in the coding sequence and 0.5 RPKM in the 3′UTR in two replicate libraries were included for the quantitation comparison (254 transcripts in G418 and 495-748 transcripts in ACE-tRNAs). […] ACE-tRNAs examined here had no detectable change of 3′UTR ribosome density with the exception of ACE-tRNA Gln-UAA and Arg-UGA which induced approximately a 2-fold increase in 3′UTR ribosome density for the cognate stop codon complimentary to the ACE-tRNA anticodon. Understanding the biological significance of 2-fold readthrough of protein stops will require further study, but this effect is substantially lower compared to the 100- to 1000-fold suppression of PTC for the same ACE-tRNA.
# Multiple in-frame stop codons are frequently found at the end of genes 37-39 and may cause a minor difference in overall 3′UTR ribosome density for ACE-tRNA and G418 treatment. Ribosome occupancy was examined at each nucleotide in the 3′UTR within a 60 nt region downstream of the stop codons. […] Reads were normalized per total million-mapped reads, compared against control cells, and reported as a log 2-fold change as in panel A. More than 5,200 transcripts were mapped to at least 1 footprint in the region of interest. […] Taken together, the ribosome profiling data argue that efficiency of native stop codon suppression by ACE-tRNAs is generally low, and markedly less than the level of PTC suppression.
# Ribosome Footprint Profiling Library preparation. HEK293 cells transiently transfected with ACE-tRNAs and control plasmid (puc57GG) were grown in standard grown media in the absence of Pen-Strep for 48 h. Libraries were prepared as described^55, with a few modifications. Briefly, cells were rapidly cooled by addition of ice-cold PBS, lysed in lysis buffer (20 mM Tris-HCl/pH7.4, 150 mM NaCl, 5 mM MgCl2, 1 mM DTT, 1% (v/v) Triton X-100, and 25 U ml^−1 Turbo DNase I) for 10 min on ice, and triturated with ten times through a 26-G needle. […]
molecule,measurement,setting,value
"Glychr19.trna2: top performing glycine ACE-tRNA UGA, SEQ ID NO: 53 (nucleic acid, chemistry not given here) GCGUUGGUGGUAUAGUGGUUAGCAUAGCUGCCUUCAAAGCAGUUGACCCGGGUUCGAUUCCCGGCCAACGCA",readthrough of native stop codons / effect on global translation termination,discussion of profiling data,no significant effect on global translation termination
same,ribosome occupancy in the early region of 3′UTR downstream of stop codons,"per nucleotide, -35 to +65 nt",no observable change of ribosome occupancy
